Measurements from patent US20240116985A1 (published 2024).
Starred links: 1 amine or outer side, 2 acyl side, 3 side chain; linkers in the order of their positions; H or OH if unused. Positions of bridges follow the written chain, without caps; N, C: chain ends. Non-standard residues stand in square brackets, D forms with d. Primed or numbered codes have the meaning given here. B5(16) = 2-amino-2-(pent-4-en-1-yl)hept-6-enoic acid = 2,2-bis(4-pentenyl)glycine (stitching residue), C=CCCCC(CCCC=C)(N[*:1])C(=O)[*:2]; B5(4) = 2,2-bis(4-pentenyl)glycine = 2-amino-2-(pent-4-en-1-yl)hept-6-enoic acid (stitching residue), C=CCCCC(CCCC=C)(N[*:1])C(=O)[*:2]; PyrS(3) = (S)-1-((allyloxy)carbonyl)-3-aminopyrrolidine-3-carboxylic acid, stapling residue, C=CCOC(=O)N1CC[C@@](N[*:1])(C(=O)[*:2])C1; PyrS″ = (S)-1-((allyloxy)carbonyl)-3-aminopyrrolidine-3-carboxylic acid (stapling residue), C=CCOC(=O)N1CC[C@@](N[*:1])(C(=O)[*:2])C1; RdN = (R)-4-(((allyloxy)carbonyl)(methyl)amino)-2-amino-2-methylbutanoic acid, C=CCOC(=O)N(C)CC[C@@](C)(N[*:1])C(=O)[*:2]; PyrS = (S)-1-((allyloxy)carbonyl)-3-aminopyrrolidine-3-carboxylic acid, C=CCOC(=O)N1CC[C@@](N[*:1])(C(=O)[*:2])C1; 6F1NapA = 2-amino-3-(6-fluoronaphthalen-1-yl)propanoic acid, O=C([C@H](Cc1cccc2cc(F)ccc12)N[*:1])[*:2]; B5 = 2-amino-2-(pent-4-en-1-yl)hept-6-enoic acid, C=CCCCC(CCCC=C)(N[*:1])C(=O)[*:2]; H2Trp = 2,3-dihydrotryptophan (indolin-3-yl alanine); Trp(5-OMe) = COc1ccc2[nH]cc(C[C@H](N)C(=O)O)c2c1; Trp(5-F) = N[C@@H](Cc1c[nH]c2ccc(F)cc12)C(=O)O; S7 = C[C@@](CCCCCC=[*:3])(N[*:1])C(=O)[*:2]; Bip = N[C@@H](Cc1ccc(-c2ccccc2)cc1)C(=O)O; αAllylPro = C=CC[C@@]1(C(=O)O)CCCN1; R8 = C=CCCCCCC[C@@](C)(N)C(=O)O; S8 = C=CCCCCCC[C@](C)(N)C(=O)O; Aib = CC(C)(N)C(=O)O

T1: full-length beta-Catenin (Uniprot ID P35222) (Homo sapiens (Human), UniProt P35222 2-781)
T1 construct: the AlphaScreen assay uses a Histidine (Nickel Chelate) detection kit, so a His tag is likely there; also called B-Catenin; bCat
T1 sequence: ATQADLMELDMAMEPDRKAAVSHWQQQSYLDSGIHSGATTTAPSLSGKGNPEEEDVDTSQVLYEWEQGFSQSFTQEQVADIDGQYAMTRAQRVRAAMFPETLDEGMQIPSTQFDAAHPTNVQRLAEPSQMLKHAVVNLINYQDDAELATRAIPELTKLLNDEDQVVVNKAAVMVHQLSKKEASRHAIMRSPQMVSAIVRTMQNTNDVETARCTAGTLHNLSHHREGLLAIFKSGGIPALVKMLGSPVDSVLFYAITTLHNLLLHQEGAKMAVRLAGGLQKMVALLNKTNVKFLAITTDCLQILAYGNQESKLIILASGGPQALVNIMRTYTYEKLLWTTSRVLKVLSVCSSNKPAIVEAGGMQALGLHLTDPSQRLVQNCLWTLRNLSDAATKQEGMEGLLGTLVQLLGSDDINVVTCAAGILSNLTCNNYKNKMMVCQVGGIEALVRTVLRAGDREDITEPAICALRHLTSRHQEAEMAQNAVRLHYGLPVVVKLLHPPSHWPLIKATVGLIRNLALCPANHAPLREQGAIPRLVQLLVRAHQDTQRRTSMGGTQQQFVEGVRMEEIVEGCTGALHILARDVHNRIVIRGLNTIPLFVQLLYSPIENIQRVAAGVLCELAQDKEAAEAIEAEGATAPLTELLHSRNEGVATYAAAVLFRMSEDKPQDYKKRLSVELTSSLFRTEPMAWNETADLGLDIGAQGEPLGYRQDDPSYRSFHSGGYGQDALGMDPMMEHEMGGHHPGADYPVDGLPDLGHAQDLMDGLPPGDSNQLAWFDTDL


Target: T1, full-length beta-Catenin (Uniprot ID …)
Test: AlphaScreen competition; full-length beta-catenin with biotin-TCF4(10-53) probe as competitor
Experimental: Equal volume of the titrated peptide was added to the plate and incubated for 15 minutes at 20° C. Then 4 uL of donor and 4 uL acceptor beads at 10 ug/mL were added to the plate, for a 16 uL reaction pool and protected from light for 60 minutes at 20° C. prior to read. Reads were performed on a CLARIOstar plate reader (BMG Labtech) in duplicate, and data were fitted to a 1:1 binding model with hill slope using an in-house script. All provided concentrations are final concentrations.

Row | EC50 [µM] | Binder
1 | 5.5 | Ac-DI[RdN]DDAAFQ[S7]FW-NH2 (staple 3-10, stapled peptide composition) [I-151]
2 | 1.41 | XDAXDEAAFVXFXQ (not fully specified; as printed: Ac-PL3-Asp-Ala-B5-Asp-Glu-Ala-Ala-Phe-Val-S8-Phe-aMeW-Gln-NH2; N-terminal acetyl, C-terminal amide; PL3(1), B5(4), S8(11), aMeW(13); staples PL3-B5 and B5-S8 by olefin metathesis, stapled peptide) [I-137]
3 | 2.17 | Ac-[Aib]DA[R8]DEAAFV[PyrS(3)]FWQ-NH2 (staple 4-11; also: later-eluting staple isomer, stapled peptide) [I-158]
4 | 1.22 | Ac-[αAllylPro]DA[B5(4)]DEAAFV[S8]F[Trp(5-F)]Q-NH2 (staple 1-4, 4-11, stapled peptide composition) [I-146]
5 | 7.37 | Ac-[αAllylPro]DA[B5(4)]DEAAFV[S8]F[6F1NapA]Q-NH2 (staple 1-4, 4-11, stapled peptide composition) [I-142]
6 | 3.61 | Ac-FDA[R8]DDAAFS[PyrS]FWQ-NH2 (staple 4-11, stapled peptide) [I-164]
7 | 2.07 | XDAXDEAAFVXFXQ (not fully specified; as printed: Ac-PL3-Asp-Ala-B5-Asp-Glu-Ala-Ala-Phe-Val-S8-Phe-5CpW-Gln-NH2; N-terminal acetyl, C-terminal amide; PL3(1), B5(4), S8(11), 5CpW(13); staples PL3-B5 and B5-S8 by olefin metathesis, stapled peptide) [I-171]
8 | ≥ 10 | Ac-FDA[R8]DDAAFV[PyrS]EWQ-NH2 (staple 4-11; not fully specified; printed as Ac-Phe-Asp-Ala-R8-Asp-Asp-Ala-Ala-Phe-Val-PyrS-Glu-Trp-Gln-NH2, stapled peptide) [I-161]
9 | 1.79 | DIXDDAAFQXFWH (not fully specified; as printed: Ac-Asp-Ile-RdN-Asp-Asp-Ala-Ala-Phe-Gln-S7-Phe-Trp-His-NH2; N-terminal acetyl, C-terminal amide; RdN(3), S7(10); staple RdN-S7 by olefin metathesis, stapled peptide) [I-149]
10 | 1.94 | DIXDDAAFQXFWH (not fully specified; as printed: Ac-Asp-Ile-RdN-Asp-Asp-Ala-Ala-Phe-Gln-S7-Phe-Trp-His-NH2; N-terminal acetyl, C-terminal amide; RdN(3), S7(10); staple RdN-S7 by olefin metathesis, stapled peptide) [I-150]
11 | 5.35 | Ac-[Aib]DA[R8]DEAAFV[PyrS″]FW[Aib]-NH2 (staple 4-11; not fully specified; printed as Ac-Aib-Asp-Ala-R8-Asp-Glu-Ala-Ala-Phe-Val-PyrS-Phe-Trp-Aib-NH2, stapled peptide) [I-159]
12 | 1.23 | Ac-[αAllylPro]DA[B5(16)]DEAAFV[S8]F[Trp(5-OMe)]Q-NH2 (staple 1-4, 4-11, stapled peptide composition) [I-165]
13 | 3.3 | XDAXDEAAFVXFXQ (not fully specified; as printed: Ac-PL3-Asp-Ala-B5-Asp-Glu-Ala-Ala-Phe-Val-S8-Phe-aMeW-Gln-NH2; N-terminal acetyl, C-terminal amide; PL3(1), B5(4), S8(11), aMeW(13); staples PL3-B5 and B5-S8 by olefin metathesis, stapled peptide) [I-136]
14 | 5.64 | Ac-[αAllylPro]DA[B5(16)]DEAAFV[S8]F[H2Trp]Q-NH2 (staple 1-4, 4-11, stapled peptide) [I-168]
15 | 3.24 | Ac-[Aib]DA[R8]DEAAFV[PyrS]FW[Aib]-NH2 (staple 4-11; not fully specified; printed as Ac-Aib-Asp-Ala-R8-Asp-Glu-Ala-Ala-Phe-Val-PyrS-Phe-Trp-Aib-NH2, stapled peptide) [I-160]
16 | ≥ 10 | Ac-[αAllylPro]DA[B5]DEAAFV[S8]F[Bip]Q-NH2 (staple 1-4, 4-11, stapled peptide composition) [I-145]
